B1: 374_B04 (antibody, V domains shown)
VH: EVQLLESGGGLVQPGGSLRLSCAASGFTFSSYSMNWVRQAPGKGLEWVSNINYNSGYTGYADSVKGRFTISRDNSKNTLYLQMNSLRAEDTAVYYCARSANWHDTALDYWGQGTLVTVSS
VL: DIQMTQSPSSLSASVGDRVTITCRASQSIVSYLNWYQQKPGKAPKLLIYAVTSRASGVPSRFSGSGSGTDFTLTISSLQPEDFATYYCQQSYESPLTFGGGTKVEIK
B2: 373_D10 (antibody, V domains shown)
VH: B1 VH with S30D, T58K
VL: B1 VL with V30L, L33V, V51A, E93D, S94L
B3: 372_D02 (antibody, V domains shown)
VH: B1 VH with S33G, N35H, S49A, N50G, S55G
VL: B1 VL with V30L, S31T, L47V, V51A, E93D, S94N
B4: 373_D01 (antibody, V domains shown)
VH: B1 VH with S30D, N50G, T58K, G59S, A106H
VL: B1 VL with V30L, L33V, L47V, V51A, E93D
B5: 372_F03 (antibody, V domains shown)
VH: B1 VH with S33G, S49A, N50G, S55G, G59S
VL: B1 VL with V30L, L47V, V51A, E93D, S94T
B6: 373_G10 (antibody, V domains shown)
VH: B1 VH with S31D, S33G, S55G, T58K, G59S
VL: B1 VL with L33V, V51A, E93D, S94L
B7: 371_F08 (antibody, V domains shown)
VH: B1 VH with S30D, S31D, N50G, S55G
VL: B1 VL with L33V, L47V, V51A, A55H
B8: 373_E05 (antibody, V domains shown)
VH: B1 VH with S30D, S33G, S55G, G59S
VL: B1 VL with V30L, L33V, E93D, S94L
B9: 373_G12 (antibody, V domains shown)
VH: B1 VH with S55G, G59S
VL: B1 VL with V30L, V51T, R54L, E93N
B10: 373_E12 (antibody, V domains shown)
VH: B1 VH with S49A, S55G
VL: B1 VL with V30L, L33V, L47V, V51A, E93D, S94T
B11: 372_A04 (antibody, V domains shown)
VH: B1 VH with S30D, N50G, G59S
VL: B1 VL with V30L, S31T, L47V, V51A, S94T
B12: 371_G10 (antibody, V domains shown)
VH: B1 VH with N50G, S55G, T58K, G59S
VL: B1 VL with V30S, L33V, V51A, A55H, Y92D, E93D
B13: 373_C04 (antibody, V domains shown)
VH: B1 VH with S49A
VL: B1 VL with V30I, L33V, L47V, E93N
B14: 373_B10 (antibody, V domains shown)
VH: B1 VH with S30D, S33G, S55G, G59S
VL: B1 VL with V30L, V51A, E93D, S94L
B15: 374_D08 (antibody, V domains shown)
VH: B1 VH with S30D, S33G, N50G, A106H
VL: B1 VL with V30L, S31T, V51A, A55H
B16: 372_C07 (antibody, V domains shown)
VH: B1 VH with S31D, G59S, A106H
VL: B1 VL with V30L, L47V, V51A, A55H, Y92D, E93N, S94T
B17: 373_C11 (antibody, V domains shown)
VH: B1 VH with N50G
VL: B1 VL with V30L, S31T, L33V, L47V, S94T
B18: 374_C06 (antibody, V domains shown)
VH: B1 VH with S30D, S31D, N50S, T58K
VL: B1 VL with V30L, S31T, L33V, V51A, E93N
B19: 373_H01 (antibody, V domains shown)
VH: B1 VH with S30D, S49A, S55G
VL: B1 VL with V30L, L47V, V51A, E93D, S94N
B20: 371_F06 (antibody, V domains shown)
VH: B1 VH with S30D, S49A, S55G, G59S
VL: B1 VL with L47V, V51A, A55H, E93N
B21: 373_C06 (antibody, V domains shown)
VH: B1 VH with S49A, N50G, S55G
VL: B1 VL with L33V, L47V, V51A, E93D, S94T
B22: 374_B12 (antibody, V domains shown)
VH: B1 VH with S30D, S49A, N50G, S55G, A106H
VL: B1 VL with V30S, L47V, V51A, E93D, S94N
B23: 373_D05 (antibody, V domains shown)
VH: B1 VH with N50G, T58K
VL: B1 VL with V30L, L47V, V51A, E93D
B24: 373_E01 (antibody, V domains shown)
VH: B1 VH with S33G, N50G, S55G, T58K
VL: B1 VL with L33V, V51A, A55H, E93N, S94N
B25: 373_E07 (antibody, V domains shown)
VH: B1 VH with S33G, S49A, S55G, G59S
VL: B1 VL with V30L, S31T, L33V, V51A, R54L, S94T
B26: 373_B04 (antibody, V domains shown)
VH: B1 VH with S33G, S49A, N50G, T58K
VL: B1 VL with V30L, S31T, V51A, S94T
B27: 373_B12 (antibody, V domains shown)
VH: B1 VH with S30D, S33G, N50S, G59S
VL: B1 VL with L33V, V51A, E93D
B28: 372_F08 (antibody, V domains shown)
VH: B1 VH with S31D
VL: B1 VL with V30L, S31T, L33V, L47V, V51A, E93D, S94T
B29: 374_A07 (antibody, V domains shown)
VH: B1 VH with N50G, T58K
VL: B1 VL with V30L, L33V, E93D, S94L
B30: 374_B06 (antibody, V domains shown)
VH: B1 VH with S30D, S49A, N50G, T58K, A106H
VL: B1 VL with V30L, S31T, L33V, V51A, E93D, S94T
B31: 371_H09 (antibody, V domains shown)
VH: B1 VH with S30D, S55G, G59S
VL: B1 VL with V30L, S31T, L33V, L47V, V51A, R54L, E93D
B32: 372_F06 (antibody, V domains shown)
VH: B1 VH with S31D, S33G, S49A, N50G, S55G, T58K, G59S
VL: B1 VL with V30L, L33V, V51A, R54L, S94T
B33: 373_C08 (antibody, V domains shown)
VH: B1 VH with S49A, S55G, G59S
VL: B1 VL with V30I, V51A, T52S, R54L, A55Q, E93N, S94N
B34: 373_A10 (antibody, V domains shown)
VH: B1 VH with S33G, N50G, G59S
VL: B1 VL with V30L, L47V, V51A, E93D, S94L
B35: 374_C03 (antibody, V domains shown)
VH: B1 VH with S30D, N50G, G59S
VL: B1 VL with V30L, S31T, V51A, E93D
B36: 373_A08 (antibody, V domains shown)
VH: B1 VH with S30D, S33G, S55G
VL: B1 VL with L33V, V51A, R54L, E93S, S94L
B37: 372_B04 (antibody, V domains shown)
VH: B1 VH with S30D, S33G, S49A, S55G, G59S
VL: B1 VL with V30L, L33V, L47V, V51A, R54L, E93D
B38: 373_H05 (antibody, V domains shown)
VH: B1 VH with S31D, S49A, S55G, T58K
VL: B1 VL with V30L, S31T, L33V, L47V, V51A, S94T
B39: 373_B06 (antibody, V domains shown)
VH: B1 VH with S31D, S49A, N50G, S55G
VL: B1 VL with V30L, S31T, L33V, L47V, V51A, A55H
B40: 373_D04 (antibody, V domains shown)
VH: B1 VH with S30D, N50G, T58K
VL: B1 VL with V30L, V51A, A55H, E93D
B41: 376_F06 (antibody, V domains shown)
VH: B1 VH with S33G, N50G, S55G, S99G, A106H
VL: B1 VL with V30L, S31T, L33V, L47V, V51A, S94T
B42: 376_G06 (antibody, V domains shown)
VH: B1 VH with S33G, S49A, N50G, S55G, S99G, A106H
VL: B1 VL with L33V, L47V, V51A, E93N
B43: 376_H04 (antibody, V domains shown)
VH: B1 VH with S49A, N50G, S55G, T58K, S99G
VL: B1 VL with V30L, S31T, L33V, L47V, V51A, E93D, S94L
B44: 376_G10 (antibody, V domains shown)
VH: B1 VH with S30D, S33G, S49A, N50G, S55G, G59S, S99G
VL: B1 VL with V30L, L33V, V51A
B45: 376_G05 (antibody, V domains shown)
VH: B1 VH with S49A, N50G, S55G, G59S, S99G
VL: B1 VL with V30I, L33V, L47V, V51A

Where a chain is given by its changes, count along the chain named.

For the first experiment, the target named is Human Fc (human). Kind of experiment: ELISA, negative control. On the technique in general: An ELISA detects its analyte on a solid surface through an enzyme-linked reagent.
B1: the optical density is 0.222 OD.

As to B2, the optical density was 0.189 OD.

Turning to B3, the optical density was 0.433 OD.

The molecule B4 gave an optical density of 0.174 OD.

B5 came in with an optical density of 0.438 OD.

B6 returned an optical density of 0.2 OD.

In turn, B7 yielded an optical density of 0.301 OD.

In turn, B8 gave an optical density of 0.176 OD.

B9 returned an optical density of 0.174 OD.

With B10, the optical density came out at 0.17 OD.

Take B11: the optical density worked out at 0.339 OD.

Take B12: the optical density stood at 0.439 OD.

B13 had an optical density of 0.157 OD.

B14 returned an optical density of 0.174 OD.

Consider B15, for which the optical density came out at 0.201 OD.

Molecule B16 showed an optical density of 0.279 OD.

Regarding B17, the optical density was determined as 0.171 OD.

Turning to B18, the optical density amounted to 0.18 OD.

As to B19, the optical density was determined as 0.198 OD.

In turn, B20 displayed an optical density of 0.289 OD.

In the case of B21, the optical density came to 0.163 OD.

For the molecule B22, the optical density is 0.257 OD.

Take B23: the optical density is 0.179 OD.

B24 registered an optical density of 0.16 OD.

Take B25: the optical density was 0.294 OD.

B26 had an optical density of 0.176 OD.

With B27, the optical density came to 0.172 OD.

Consider B28, for which the optical density is 0.335 OD.

With B29, the optical density is 0.206 OD.

As for B30, the optical density was 0.157 OD.

Regarding B31, the optical density was 0.32 OD.

In turn, B32 showed an optical density of 0.38 OD.

The molecule B33 registered an optical density of 0.16 OD.

B34 registered an optical density of 0.175 OD.

In the case of B35, the optical density was 0.208 OD.

For B36, the optical density was determined as 0.195 OD.

For B37, the optical density was determined as 0.333 OD.

For the molecule B38, the optical density worked out at 0.201 OD.

On to B39, for which the optical density amounted to 0.221 OD.

For the molecule B40, the optical density stood at 0.168 OD.

The target in the next experiment is Human Fc (human). Kind of experiment: ELISA; negative control.
Molecule B41 yielded an optical density of 0.284 OD.

B42 returned an optical density of 0.267 OD.

With B43, the optical density amounted to 0.34 OD.

In turn, B44 displayed an optical density of 0.321 OD.

The molecule B45 displayed an optical density of 0.252 OD.

The values are drawn from patent US20210380703A1.
